{
  "source": "paper PMC3517355",
  "data": [
    {"target": "CCHF 11E7a peptide (Crimean-Congo hemorrhagic fever virus, UniProt Q8JSZ3)", "experiment": "ELASA; […] (0.5 M NaCl, 10 mM Tris-HCl, 1 mM MgCl2, pH 7.5-7.6), 1 h, RT (~25 C); […]", "settings": "label: 5'-biotin", "units": {"binding signal": "A405"}, "values": [
      {"binder": "E7a-5R (ssDNA) DNA: ATCCGTCACACCTGCTCTTGACACGCGTACGGGGTCCGGACATGTCATAACGGACTGGTGTTGGCTCCCGTAT", "binding signal": 2.08},
      {"binder": "E7a-20R (ssDNA) DNA: ATCCGTCACACCTGCTCTGGTTAAACGATATGGGGCCTGCCGTTATAACTGCGTGGTGTTGGCTCCCGTAT", "binding signal": 2.04},
      {"binder": "E7a-23F (ssDNA) DNA: ATACGGGAGCCAACACCATGTCAGGACCTCCATCGCCCGGGCCCGCCGCCGCTGAGAGCAGGTGTGAC", "binding signal": 2.23},
      {"binder": "E7a-33R (ssDNA) DNA: ATCCGTCACACCTGCTCTACATCACATCTGACTGAGTCCATGGCGCTCTGTGTGTGGTGTTGGCTCCCGTAT", "binding signal": 2.12},
      {"binder": "E7a-11R (ssDNA) DNA: ATCCGTCACACCTGCTCTCGTGTGATATATATGGTAAGGGGGGTTAGTACTGCTGGTGTTGGCTCCCGTAT", "binding signal": 2.07},
      {"binder": "E7a-8R (ssDNA) DNA: ATCCGTCACACCTGCTCTCGCTGAAGCAAGACATTATCGGGACATTGCCGTGATGGTGTTGGCTCCCGTAT", "binding signal": 2.04},
      {"binder": "E7a-33F (ssDNA) DNA: ATACGGGAGCCAACACCACACACAGAGCGCCATGGACTCAGTCAGATGTGATGTAGAGCAGGTGTGACGGAT", "binding signal": 2.07},
      {"binder": "E7a-29F (ssDNA) DNA: ATACGGCAGCCAACACCACACACATAGCGCTTTGTATTCAGCCGGATGTGATGTAGAGCAGGTGTGACGGAT", "binding signal": 2.06},
      {"binder": "E7a-18F (ssDNA) DNA: ATACGGGAGCCAACACCAACAGATGGATAAGGGGGAAACTGCCCATTCGGTTAGTAGAGCAGGTGTGACGGAT", "binding signal": 2.08},
      {"binder": "E7a-20F (ssDNA) DNA: ATACGGGAGCCAACACCACGCAGTTATAACGGCAGGCCCCATATCGTTTAACCAGAGCAGGTGTGACGGAT", "binding signal": 2.02}
    ]},
    {"target": "T1, CCHF Altamura Gn 611 peptide (Crimean-Congo hemorrhagic fever virus, UniProt Q8JSZ3)", "T1 chain": "TQEGRGHVKLSRGSE", "experiment": "ELASA; […] (0.5 M NaCl, 10 mM Tris-HCl, 1 mM MgCl2, pH 7.5-7.6), 1 h, RT (~25 C); […]", "settings": "label: 5'-biotin", "units": {"binding signal": "A405"}, "values": [
      {"binder": "Gn6-30F (ssDNA) DNA: ATACGGGAGCCAACACCATCCCACCGAATATCCGCTTTCCTCGTCCTCCTTTCAGAGCAGGTGTGACGGAT", "binding signal": 1.75},
      {"binder": "Gn6-15R (ssDNA) DNA: ATCCGTCACACCTGCTCTGGGCCAGGTAAGAAGATGCGAGCTGTGTAATACATGTGGTGTTGGCTCCCGTAT", "binding signal": 1.63},
      {"binder": "Gn6-16cF (ssDNA) DNA: ATACGGGAGCCAACACCAGAGCACACTAATCATGGCGGCCCGGCGCATCCCGACAGAGCAGGTGTGACGGAT", "binding signal": 1.9},
      {"binder": "Gn6-5F (ssDNA) DNA: ATACGGGAGCCAACACCACGCCTTGTCTATTCTCTTAGTTTCCTGCTACTCCACAGAGCAGGTGTGACGGAT", "binding signal": 1.75},
      {"binder": "Gn6-18F (ssDNA) DNA: ATACGGGAGCCAACACCATACGCACCCGCATTCGTTAGTGTGTACAGTATGTCCAGAGCAGGTGTGACGGAT", "binding signal": 1.86},
      {"binder": "Gn6-25R (ssDNA) DNA: ATCCGTCACACCTGCTCTACAGTTAGAGCTTGCCGTATGCCTTTGTTAACATAATGGTGTTGGCTCCCGTAT", "binding signal": 1.94},
      {"binder": "Gn6-7bR (ssDNA) DNA: ATCCGTCACACCTGCTCTCACATACTGGTCAGTCTCTATCGAGGCGGGCATTGGTGTTGGCTCCCGTAT", "binding signal": 1.69},
      {"binder": "Gn6-17F (ssDNA) DNA: ATACGGGAGCCAACACCAAACTAGACAACCGCCCTTATACACACTGTACCAGTAGAGCAGGTGTGACGGAT", "binding signal": 1.82},
      {"binder": "Gn6-6R (ssDNA) DNA: ATCCGTCACACCTGCTCTGCATATAAATTTTTAACAAGGGACTGGTAACTATCCTGGTGTTGGCTCCCGTAT", "binding signal": 1.64},
      {"binder": "Gn6-16cR (ssDNA) DNA: ATCCGTCACACCTGCTCTGTCGGGATGCGCCGGGCCGCCATGATTAGTGTGCTCTGGTGTTGGCTCCCGTAT", "binding signal": 1.67}
    ]},
    {"target": "CCHF 11E7c peptide (Crimean-Congo hemorrhagic fever virus, UniProt Q8JSZ3)", "experiment": "ELASA; […] (0.5 M NaCl, 10 mM Tris-HCl, 1 mM MgCl2, pH 7.5-7.6), 1 h, RT (~25 C); […]", "settings": "label: 5'-biotin", "units": {"binding signal": "A405"}, "values": [
      {"binder": "E7c-23/25R (ssDNA) DNA: ATCCGTCACACCTGCTCTACAGTTAGAGCTTGCCGTATGCCTTTGTTAACATAATGGTGTTGGCTCCCGTAT", "binding signal": 2.12}
    ]},
    {"target": "CCHF 11E7b peptide (Crimean-Congo hemorrhagic fever virus, UniProt Q8JSZ3)", "experiment": "ELASA; […] (0.5 M NaCl, 10 mM Tris-HCl, 1 mM MgCl2, pH 7.5-7.6), 1 h, RT (~25 C); […]", "settings": "label: 5'-biotin", "units": {"binding signal": "A405"}, "values": [
      {"binder": "E7b-1bF (ssDNA) DNA: ATACGGGAGCCAACACCAGTCCGTTATGACATGTCCGGACCCGTACGCGTGTCAAAGAGCAGGTGTGACGGAT", "binding signal": 1.88},
      {"binder": "E7b-5R (ssDNA) DNA: ATCCGTCACACCTGCTCTTGGGCATCAGCGGGCGATGCATGCGATAAATTAGTGTGGTGTTGGCTCCCGTAT", "binding signal": 1.86},
      {"binder": "E7b-20/21R (ssDNA) DNA: ATCCGTCACACCTGCTCTCGCTGAAGCAAGACATTATCGGGACATTGCCGTGATGGTGTTGGCTCCCGTAT", "binding signal": 1.78},
      {"binder": "E7b-8a/10/16-19/23-25R (ssDNA) DNA: ATCCGTCACACCTGCTCTTGACACGCGTACGGGTCCGGACATGTCATAACGGACTGGTGTTGGCTCCCGTAT", "binding signal": 2},
      {"binder": "E7b-14R (ssDNA) DNA: ATCCGTCACACCTGCTCTTGACGCGCGAACGGGTCCGGACACGTCATAACGGAATGGTGCTGGCTCCCGTAA", "binding signal": 1.9},
      {"binder": "E7b-1bR (ssDNA) DNA: ATCCGTCACACCTGCTCTTTGACACGCGTACGGGTCCGGACATGTCATAACGGACTGGTGTTGGCTCCCGTAT", "binding signal": 2.07},
      {"binder": "E7b-3R (ssDNA) DNA: ATCCGTCACACCTGCTCTAAAGGATCCTTCTTAGCATCACATTATGATAAGATATGGTGTTGGCTCCCGTAT", "binding signal": 1.94},
      {"binder": "E7b-1aR (ssDNA) DNA: ATCCGTCACACCTGCTCTGGAAGCTTCATATTTTGAGGAATCCTCTTGAATTATGGTGTTGGCTCCCGTAT", "binding signal": 2},
      {"binder": "E7b-6R (ssDNA) DNA: ATCCGTCACACCTGCTCTTAACCTATTTGGGTCGCGTTCTCAAAATAACTTCTGTGGTGTTGGCTCCCGTAT", "binding signal": 1.86},
      {"binder": "E7b-1aF (ssDNA) DNA: ATACGGGAGCCAACACCATAATTCAAGAGGATTCCTCAAAATATGAAGCTTCCAGAGCAGGTGTGACGGAT", "binding signal": 1.83}
    ]}
  ]
}
